Residue numbers refer to the chain shown, from its start.
B1: BAP049-hum03 (antibody, human IgG4 S228P, kappa, V domains shown)
VH: EVQLVQSGAEVKKPGESLRISCKGSGYTFTTYWMHWIRQSPSRGLEWLGNIYPGTGGSNFDEKFKNRFTISRDNSKNTLYLQMNSLRAEDTAVYYCTRWTTGTGAYWGQGTTVTVSS
VL: DIQMTQSPSSLSASVGDRVTITCKSSQSLLDSGNQKNFLTWYQQKPGQAPRLLIYWASTRESGIPPRFSGSGYGTDFTLTINNIESEDAAYYFCQNDYSYPYTFGQGTKVEIKR
notes: also called Clone No. 3
B2: BAP049-hum13 (antibody, human IgG4 S228P, kappa)
heavy chain: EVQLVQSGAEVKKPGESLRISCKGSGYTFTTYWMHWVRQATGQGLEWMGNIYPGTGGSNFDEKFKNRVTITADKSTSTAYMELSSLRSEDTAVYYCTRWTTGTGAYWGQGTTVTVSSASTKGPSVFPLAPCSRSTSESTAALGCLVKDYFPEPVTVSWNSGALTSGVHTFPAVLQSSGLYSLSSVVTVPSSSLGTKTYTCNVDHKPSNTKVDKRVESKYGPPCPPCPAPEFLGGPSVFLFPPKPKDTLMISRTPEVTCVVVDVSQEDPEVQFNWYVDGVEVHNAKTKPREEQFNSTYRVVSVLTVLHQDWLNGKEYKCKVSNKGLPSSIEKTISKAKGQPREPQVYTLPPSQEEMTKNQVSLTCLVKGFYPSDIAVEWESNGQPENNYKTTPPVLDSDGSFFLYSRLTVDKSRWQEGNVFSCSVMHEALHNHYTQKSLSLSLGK
light chain: DVVMTQSPLSLPVTLGQPASISCKSSQSLLDSGNQKNFLTWYQQKPGKAPKLLIYWASTRESGVPSRFSGSGSGTDFTFTISSLEAEDAATYYCQNDYSYPYTFGQGTKVEIKRTVAAPSVFIFPPSDEQLKSGTASVVCLLNNFYPREAKVQWKVDNALQSGNSQESVTEQDSKDSTYSLSSTLTLSKADYEKHKVYACEVTHQGLSSPVTKSFNRGEC
notes: also called Clone No. 13
B3: BAP049-hum12 (antibody, human IgG4 S228P, kappa, V domains shown)
VH: EVQLVQSGAEVKKPGESLRISCKGSGYTFTTYWMHWVRQATGQGLEWMGNIYPGTGGSNFDEKFKNRVTITADKSTSTAYMELSSLRSEDTAVYYCTRWTTGTGAYWGQGTTVTVSS
VL: DIQMTQSPSSLSASVGDRVTITCKSSQSLLDSGNQKNFLTWYLQKPGQSPQLLIYWASTRESGVPSRFSGSGSGTDFTFTISSLEAEDAATYYCQNDYSYPYTFGQGTKVEIKR
notes: also called Clone No. 12
B4: BAP049-hum02 (antibody, human IgG4 S228P, kappa, V domains shown)
VH: B3 VH
VL: B1 VL
notes: also called Clone No. 2
B5: Chi mAb (Tyr) (antibody, human IgG4 S228P, kappa, V domains shown)
VH: QVQLQQSGSELVRPGASVKLSCKASGYTFTTYWMHWVRQRPGQGLEWIGNIYPGTGGSNFDEKFKNRTSLTVDTSSTTAYMHLASLTSEDSAVYYCTRWTTGTGAYWGQGTTVTVSS
VL: DIVMTQSPSSLTVTAGEKVTMSCKSSQSLLDSGNQKNFLTWYQQKPGQPPKLLIFWASTRESGVPDRFTGSGSVTDFTLTISSVQAEDLAVYYCQNDYSYPYTFGQGTKVEIKR
notes: also called BAP049-chi-Y; Chi (Tyr)
B6: murine anti-PD-1 mAb BAP049 (antibody, V domains shown)
VH: B5 VH with T112L, S117A
VL: DIVMTQSPSSLTVTAGEKVTMSCKSSQSLLDSGNQKNFLTWYQQKPGQPPKLLIFWASTRESGVPDRFTGSGSVTDFTLTISSVQAEDLAVYYCQNDYSYPCTFGGGTKLEIK
notes: the murine constant regions are not described; also called Mu mAb; murine mAb BAP049
B7: BAP049-hum10 (antibody, human IgG4 S228P, kappa)
heavy: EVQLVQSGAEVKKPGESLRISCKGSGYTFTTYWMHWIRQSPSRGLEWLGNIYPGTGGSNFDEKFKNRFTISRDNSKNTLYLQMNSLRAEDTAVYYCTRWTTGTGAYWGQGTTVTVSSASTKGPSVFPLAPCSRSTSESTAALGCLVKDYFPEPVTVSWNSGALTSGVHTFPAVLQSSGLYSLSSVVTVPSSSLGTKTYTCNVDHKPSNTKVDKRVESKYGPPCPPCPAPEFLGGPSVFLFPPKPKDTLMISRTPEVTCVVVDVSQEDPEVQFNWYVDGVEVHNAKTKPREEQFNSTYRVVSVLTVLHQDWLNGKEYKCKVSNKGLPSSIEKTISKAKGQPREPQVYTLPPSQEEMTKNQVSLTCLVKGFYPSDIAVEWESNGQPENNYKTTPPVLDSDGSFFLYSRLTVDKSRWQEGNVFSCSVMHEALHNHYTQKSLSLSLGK
light: EIVLTQSPATLSLSPGERATLSCKSSQSLLDSGNQKNFLTWYQQKPGQAPRLLIYWASTRESGVPSRFSGSGSGTDFTFTISSLEAEDAATYYCQNDYSYPYTFGQGTKVEIKRTVAAPSVFIFPPSDEQLKSGTASVVCLLNNFYPREAKVQWKVDNALQSGNSQESVTEQDSKDSTYSLSSTLTLSKADYEKHKVYACEVTHQGLSSPVTKSFNRGEC
notes: Humanized mAb
B8: BAP049-hum11 (antibody, human IgG4 S228P, kappa)
heavy: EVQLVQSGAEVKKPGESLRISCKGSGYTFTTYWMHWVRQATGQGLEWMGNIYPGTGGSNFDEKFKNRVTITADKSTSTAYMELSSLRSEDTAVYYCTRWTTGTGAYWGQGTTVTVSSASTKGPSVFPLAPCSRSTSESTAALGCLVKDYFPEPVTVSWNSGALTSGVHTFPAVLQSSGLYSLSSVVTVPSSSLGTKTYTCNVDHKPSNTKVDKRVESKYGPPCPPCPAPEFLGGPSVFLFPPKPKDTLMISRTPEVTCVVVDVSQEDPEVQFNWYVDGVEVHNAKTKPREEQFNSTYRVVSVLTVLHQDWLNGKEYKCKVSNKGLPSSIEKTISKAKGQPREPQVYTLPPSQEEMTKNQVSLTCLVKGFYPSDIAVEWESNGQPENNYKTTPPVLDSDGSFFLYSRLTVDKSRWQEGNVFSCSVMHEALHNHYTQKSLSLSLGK
light: B7 light
notes: Humanized mAb
B9: BAP049-hum08 (antibody, human IgG4 S228P, kappa)
heavy: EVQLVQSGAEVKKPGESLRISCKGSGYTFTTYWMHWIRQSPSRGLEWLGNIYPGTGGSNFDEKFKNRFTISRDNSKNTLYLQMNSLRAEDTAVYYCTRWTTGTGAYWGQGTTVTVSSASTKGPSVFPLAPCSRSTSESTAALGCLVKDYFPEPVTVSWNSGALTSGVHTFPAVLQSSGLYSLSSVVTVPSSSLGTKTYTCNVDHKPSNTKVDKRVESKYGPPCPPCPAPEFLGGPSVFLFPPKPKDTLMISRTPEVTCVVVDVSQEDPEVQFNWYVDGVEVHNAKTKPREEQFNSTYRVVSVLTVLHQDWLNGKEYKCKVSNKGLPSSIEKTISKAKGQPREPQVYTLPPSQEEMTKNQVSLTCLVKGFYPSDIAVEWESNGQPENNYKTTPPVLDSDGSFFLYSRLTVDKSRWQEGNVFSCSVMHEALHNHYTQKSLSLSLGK
light: B7 light with A9D, T10F, L11Q, L13V, S14T, G16K, R18K, A19V, L21I, S22T
notes: Humanized mAb
B10: BAP049-hum14 (antibody, human IgG4 S228P, kappa)
heavy chain: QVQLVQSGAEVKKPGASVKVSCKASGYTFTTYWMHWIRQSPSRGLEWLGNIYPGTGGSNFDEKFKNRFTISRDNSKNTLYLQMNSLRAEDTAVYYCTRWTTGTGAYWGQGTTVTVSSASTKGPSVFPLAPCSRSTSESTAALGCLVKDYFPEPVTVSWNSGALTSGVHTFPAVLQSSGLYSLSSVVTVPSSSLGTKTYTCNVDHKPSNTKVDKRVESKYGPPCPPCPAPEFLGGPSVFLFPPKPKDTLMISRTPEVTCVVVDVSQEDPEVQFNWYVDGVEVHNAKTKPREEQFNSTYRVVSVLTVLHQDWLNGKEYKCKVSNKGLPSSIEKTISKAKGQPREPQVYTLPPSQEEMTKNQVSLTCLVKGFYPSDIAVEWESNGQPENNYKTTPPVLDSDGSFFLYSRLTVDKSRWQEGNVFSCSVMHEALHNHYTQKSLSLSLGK
light chain: B7 light
notes: also called Clone No. 14
B11: BAP049-hum07 (antibody, human IgG4 S228P, kappa)
heavy chain: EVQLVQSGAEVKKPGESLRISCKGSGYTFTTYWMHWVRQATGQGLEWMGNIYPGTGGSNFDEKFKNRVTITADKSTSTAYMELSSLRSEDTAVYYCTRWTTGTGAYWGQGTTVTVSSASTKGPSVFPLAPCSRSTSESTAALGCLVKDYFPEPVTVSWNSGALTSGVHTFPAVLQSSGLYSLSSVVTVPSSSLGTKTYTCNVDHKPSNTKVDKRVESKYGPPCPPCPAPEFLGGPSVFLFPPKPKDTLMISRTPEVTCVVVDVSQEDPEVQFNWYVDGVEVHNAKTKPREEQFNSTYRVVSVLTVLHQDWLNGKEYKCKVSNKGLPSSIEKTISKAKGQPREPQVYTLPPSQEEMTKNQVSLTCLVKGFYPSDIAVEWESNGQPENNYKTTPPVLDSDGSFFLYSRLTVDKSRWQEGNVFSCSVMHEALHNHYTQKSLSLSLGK
light chain: B7 light with Q48K, R51K
notes: also called Clone No. 7
B12: BAP049-hum01 (antibody, human IgG4 S228P, kappa, V domains shown)
VH: B3 VH
VL: EIVLTQSPATLSLSPGERATLSCKSSQSLLDSGNQKNFLTWYQQKPGQAPRLLIYWASTRESGVPSRFSGSGSGTEFTLTISSLQPDDFATYYCQNDYSYPYTFGQGTKVEIKR
notes: Humanized mAb
B13: BAP049-hum09 (antibody, human IgG4 S228P, kappa)
heavy: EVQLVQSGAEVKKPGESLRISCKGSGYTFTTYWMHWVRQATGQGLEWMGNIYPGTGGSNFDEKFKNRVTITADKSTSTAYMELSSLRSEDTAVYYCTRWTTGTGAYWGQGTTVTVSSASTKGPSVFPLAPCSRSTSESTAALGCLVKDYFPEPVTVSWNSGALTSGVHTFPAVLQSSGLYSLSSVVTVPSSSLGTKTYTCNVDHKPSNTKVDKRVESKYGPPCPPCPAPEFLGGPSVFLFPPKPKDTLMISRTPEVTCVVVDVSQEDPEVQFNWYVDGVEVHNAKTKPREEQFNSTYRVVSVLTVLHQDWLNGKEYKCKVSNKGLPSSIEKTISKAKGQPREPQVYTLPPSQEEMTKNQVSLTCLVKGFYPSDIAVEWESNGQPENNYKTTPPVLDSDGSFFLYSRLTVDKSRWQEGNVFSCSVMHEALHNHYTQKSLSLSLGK
light: B7 light with A9D, T10F, L11Q, L13V, S14T, G16K, R18K, A19V, L21I, S22T
notes: Humanized mAb
B14: BAP049-hum06 (antibody, human IgG4 S228P, kappa)
heavy chain: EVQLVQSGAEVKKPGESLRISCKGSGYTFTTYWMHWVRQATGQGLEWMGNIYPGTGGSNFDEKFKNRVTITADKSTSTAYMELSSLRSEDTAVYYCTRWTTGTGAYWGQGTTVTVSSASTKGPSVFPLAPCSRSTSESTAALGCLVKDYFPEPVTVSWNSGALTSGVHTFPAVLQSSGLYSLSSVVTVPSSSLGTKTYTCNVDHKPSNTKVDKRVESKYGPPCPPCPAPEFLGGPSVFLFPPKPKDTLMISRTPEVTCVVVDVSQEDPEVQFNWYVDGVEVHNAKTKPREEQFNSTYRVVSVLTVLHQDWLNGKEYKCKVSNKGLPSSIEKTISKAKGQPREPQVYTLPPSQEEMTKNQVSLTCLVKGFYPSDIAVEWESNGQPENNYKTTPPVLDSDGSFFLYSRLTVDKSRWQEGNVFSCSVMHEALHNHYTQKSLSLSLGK
light chain: B2 light chain with V2I, S7T, L15P, Q17E, K48Q, K51R
notes: also called Clone No. 6
B15: BAP049-hum15 (antibody, human IgG4 S228P, kappa)
heavy chain: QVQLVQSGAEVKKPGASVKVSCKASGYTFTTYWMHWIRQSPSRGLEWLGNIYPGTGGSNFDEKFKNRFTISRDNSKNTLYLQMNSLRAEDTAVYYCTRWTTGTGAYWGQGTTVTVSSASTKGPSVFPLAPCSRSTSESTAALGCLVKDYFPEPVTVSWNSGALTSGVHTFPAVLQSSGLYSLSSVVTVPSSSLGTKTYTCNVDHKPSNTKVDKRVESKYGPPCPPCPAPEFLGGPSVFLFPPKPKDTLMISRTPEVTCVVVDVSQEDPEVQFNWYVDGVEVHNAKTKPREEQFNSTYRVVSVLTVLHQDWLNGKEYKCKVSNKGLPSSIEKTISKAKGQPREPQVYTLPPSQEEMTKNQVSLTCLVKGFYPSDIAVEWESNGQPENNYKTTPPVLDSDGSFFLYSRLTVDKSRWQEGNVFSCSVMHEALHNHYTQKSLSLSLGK
light chain: B7 light with A9D, T10F, L11Q, L13V, S14T, G16K, R18K, A19V, L21I, S22T
notes: also called Clone No. 15
B16: BAP049-hum04 (antibody, human IgG4 S228P, kappa, V domains shown)
VH: B1 VH
VL: B12 VL with Q48K, R51K, E76D, L79F, D87E, F89I
notes: also called Clone No. 4
B17: BAP049-hum05 (antibody, human IgG4 S228P, kappa, V domains shown)
VH: B3 VH
VL: B12 VL with Q48K, R51K, E76D, L79F, D87E, F89I
notes: Humanized mAb
B18: BAP049-hum16 (antibody, human IgG4 S228P, kappa, V domains shown)
VH: B1 VH with I37V, S40A, S42G, R43Q, L48M
VL: EIVLTQSPDFQSVTPKEKVTITCKSSQSLLDSGNQKNFLTWYQQKPGQAPRLLIYWASTRESGVPSRFSGSGSGTDFTFTISSLEAEDAATYYCQNDYSYPYTFGQGTKVEIKR
notes: also called Clone No. 16

What was measured:
[1] = target: T1, Programmed Death 1 (PD-1) (UniProt Q15116 25-167, limits assumed); test: rank among the 16 humanized clones by FACS data (order agrees with the 200 ng/ml bars of FIGURE 4, 1 = highest)
T1 sequence (Q15116 25-167 limits assumed): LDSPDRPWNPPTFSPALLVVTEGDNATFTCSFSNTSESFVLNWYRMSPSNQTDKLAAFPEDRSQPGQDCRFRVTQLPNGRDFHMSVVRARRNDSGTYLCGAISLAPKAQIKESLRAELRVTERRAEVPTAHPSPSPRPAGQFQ

[2] = target: T2, PD-1 on PD-1-expressing 300.19 cells (UniProt Q15116 25-288, limits assumed); test: rank among the 16 humanized clones in competition binding against labeled murine mAb BAP049, 1st exp. (FIGURE 6A)
T2 construct: whole, on cells
T2 sequence (Q15116 25-288 limits assumed): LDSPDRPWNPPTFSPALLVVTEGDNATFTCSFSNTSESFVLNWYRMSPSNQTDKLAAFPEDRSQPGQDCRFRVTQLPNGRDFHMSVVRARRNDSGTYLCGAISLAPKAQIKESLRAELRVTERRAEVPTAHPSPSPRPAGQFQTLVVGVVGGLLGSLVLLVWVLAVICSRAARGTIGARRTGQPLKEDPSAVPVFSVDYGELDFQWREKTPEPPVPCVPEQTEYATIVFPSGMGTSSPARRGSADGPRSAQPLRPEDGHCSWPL

[3] = target: T2, PD-1 on PD-1-expressing 300.19 cells; test: rank among the 16 humanized clones in competition binding against labeled murine mAb BAP049, 2nd exp. (FIGURE 6B)
[4] = target: T1, Programmed Death 1 (PD-1); test: FACS ligand blocking: mAb titrated, signal of ligand-Ig bound to PD-1; legend paragraph 46 names PD-L1-Ig and PD-L2-Ig as blocked ligands for FIG. 8A; cells not named

| Binder | Ranking FACS data [1] | Competition Binding 1st exp. [2] | Competition Binding 2nd exp. [3] | IC50 (read off the curve) [4] |
| --- | --- | --- | --- | --- |
| B1 | 7 | 8 | 14 | – |
| B2 | 6 | 1 | 1 | – |
| B3 | 3 | 8 | 16 | – |
| B4 | 6 | 3 | 2 | – |
| B5 | – | – | – | ~0.8 µg/mL |
| B6 | – | – | – | ~0.6 µg/mL |
| B7 | 7 | 6 | > 4 | ~1 µg/mL |
| B8 | 6 | 4 | > 4 | – |
| B9 | 7 | 7 | 4 | – |
| B10 | 16 | 7 | 15 | – |
| B11 | 4 | 7 | > 4 | – |
| B12 | 2 | 7 | 2 | ~1 µg/mL |
| B13 | 7 | 2 | 4 | – |
| B14 | 1 | 7 | 3 | – |
| B15 | 6 | 7 | 15 | – |
| B16 | 14 | 15 | 15 | – |
| B17 | 5 | 5 | > 4 | ~1 µg/mL |
| B18 | 15 | 16 | 15 | – |
